Results published in PMC3392545.

Biological target: human STING C-terminal domain (CTD) containing residues 155 to 341 (human) (UniProt Q86WV6)
Assay: SEC

Substance: human STING C-terminal domain (CTD) containing residues 155 to 341 (from UniProt Q86WV6 155-341) (domain or fragment)
- stoichiometry N: 2
